Measured values taken from IntAct's records for PubMed 25910212.

B1: Phytanoyl-CoA dioxygenase, peroxisomal (Homo sapiens), O14832 (parent)
chain: MEQLRAAARLQIVLGHLGRPSAGAVVAHPTSGTISSASFHPQQFQYTLDNNVLTLEQRKFYEENGFLVIKNLVPDADIQRFRNEFEKICRKEVKPLGLTVMRDVTISKSEYAPSEKMITKVQDFQEDKELFRYCTLPEILKYVECFTGPNIMAMHTMLINKPPDSGKKTSRHPLHQDLHYFPFRPSDLIVCAWTAMEHISRNNGCLVVLPGTHKGSLKPHDYPKWEGGVNKMFHGIQDYEENKARVHLVMEKGDTVFFHPLLIHGSGQNKTQGFRKAISCHFASADCHYIDVKGTSQENIEKEVVGIAHKFFGAENSVNLKDIWMFRARLVKGERTNL
B2: Acetylcholine receptor subunit gamma (Homo sapiens), P07510-2 (parent)
chain: MHGGQGPLLLLLLLAVCLGAQGRNQEERLLADLMQNYDPNLRPAERDSDVVNVSLKLTLTNLISLNEREEALTTNVWIEMQWCDYRLRWDPRDYEGLWVLRVPSTMVWRPDIVLENKSQTYSTNEIDLQLSQEDGQTIEWIFIDPEAFTENGEWAIQHRPAKMLLDPAAPAQEAGHQKVVFYLLIQRKPLFYVINIIAPCVLISSVAILIHFLPAKAGGQKCTVAINVLLAQTVFLFLVAKKVPETSQAVPLISKYLTFLLVVTILIVVNAVVVLNVSLRSPHTHSMARGVRKVFLRLLPQLLRMHVRPLAPAAVQDTQSRLQNGSSGWSITTGEEVALCLPRSELLFQQWQRQGLVAAALEKLEKGPELGLSQFCGSLKQAAPAIQACVEACNLIACARHQQSHFDNGNEEWFLVGRVLDRVCFLAMLSLFICGTAGIFLMAHYNRVPALPFPGDPRPYLPSPD
partner: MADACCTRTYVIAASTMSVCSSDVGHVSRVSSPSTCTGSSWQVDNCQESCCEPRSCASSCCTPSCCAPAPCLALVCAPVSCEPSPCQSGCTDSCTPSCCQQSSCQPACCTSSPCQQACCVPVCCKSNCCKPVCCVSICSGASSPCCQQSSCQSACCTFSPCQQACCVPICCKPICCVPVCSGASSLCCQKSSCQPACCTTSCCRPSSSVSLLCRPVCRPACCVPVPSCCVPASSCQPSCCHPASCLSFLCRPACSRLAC
B3: Dolichol-phosphate mannosyltransferase subunit 1 (Homo sapiens), O60762 (parent)
chain: MASLEVSRSPRRSRRELEVRSPRQNKYSVLLPTYNERENLPLIVWLLVKSFSESGINYEIIIIDDGSPDGTRDVAEQLEKIYGSDRILLRPREKKLGLGTAYIHGMKHATGNYIIIMDADLSHHPKFIPEFIRKQKEGNFDIVSGTRYKGNGGVYGWDLKRKIISRGANFLTQILLRPGASDLTGSFRLYRKEVLEKLIEKCVSKGYVFQMEMIVRARQLNYTIGEVPISFVDRVYGESKLGGNEIVSFLKGLLTLFATT
B4: Emerin (Homo sapiens), P50402 (parent)
chain: MDNYADLSDTELTTLLRRYNIPHGPVVGSTRRLYEKKIFEYETQRRRLSPPSSSAASSYSFSDLNSTRGDADMYDLPKKEDALLYQSKGYNDDYYEESYFTTRTYGEPESAGPSRAVRQSVTSFPDADAFHHQVHDDDLLSSSEEECKDRERPMYGRDSAYQSITHYRPVSASRSSLDLSYYPTSSSTSFMSSSSSSSSWLTRRAIRPENRAPGAGLGQDRQVPLWGQLLLFLVFVIVLFFIYHFMQAEEGNPF
partner: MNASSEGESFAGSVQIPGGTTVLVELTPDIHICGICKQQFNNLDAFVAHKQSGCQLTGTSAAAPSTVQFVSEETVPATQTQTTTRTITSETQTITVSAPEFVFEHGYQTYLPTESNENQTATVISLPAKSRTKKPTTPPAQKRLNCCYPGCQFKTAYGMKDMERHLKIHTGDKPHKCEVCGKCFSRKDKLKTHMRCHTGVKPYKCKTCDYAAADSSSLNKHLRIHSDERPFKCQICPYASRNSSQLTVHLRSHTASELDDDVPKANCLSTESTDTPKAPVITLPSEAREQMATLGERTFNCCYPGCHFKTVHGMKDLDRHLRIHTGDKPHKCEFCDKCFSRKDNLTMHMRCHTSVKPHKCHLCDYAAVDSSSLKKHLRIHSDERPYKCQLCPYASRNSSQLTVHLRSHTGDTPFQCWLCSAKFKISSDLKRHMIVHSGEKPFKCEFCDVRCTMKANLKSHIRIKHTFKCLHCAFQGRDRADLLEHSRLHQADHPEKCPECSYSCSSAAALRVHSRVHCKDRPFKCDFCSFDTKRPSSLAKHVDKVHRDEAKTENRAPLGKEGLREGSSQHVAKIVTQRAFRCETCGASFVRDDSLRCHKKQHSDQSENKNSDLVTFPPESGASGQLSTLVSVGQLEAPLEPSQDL
B5: U4/U6 small nuclear ribonucleoprotein Prp31 (Homo sapiens), Q8WWY3 (parent)
chain: MSLADELLADLEEAAEEEEGGSYGEEEEEPAIEDVQEETQLDLSGDSVKTIAKLWDSKMFAEIMMKIEEYISKQAKASEVMGPVEAAPEYRVIVDANNLTVEIENELNIIHKFIRDKYSKRFPELESLVPNALDYIRTVKELGNSLDKCKNNENLQQILTNATIMVVSVTASTTQGQQLSEEELERLEEACDMALELNASKHRIYEYVESRMSFIAPNLSIIIGASTAAKIMGVAGGLTNLSKMPACNIMLLGAQRKTLSGFSSTSVLPHTGYIYHSDIVQSLPPDLRRKAARLVAAKCTLAARVDSFHESTEGKVGYELKDEIERKFDKWQEPPPVKQVKPLPAPLDGQRKKRGGRRYRKMKERLGLTEIRKQANRMSFGEIEEDAYQEDLGFSLGHLGKSGSGRVRQTQVNEATKARISKTLQRTLQKQSVVYGGKSTIRDRSSGTASSVAFTPLQGLEIVNPQAAEKKVAEANQKYFSSMAEFLKVKGEKSGLMST
partner: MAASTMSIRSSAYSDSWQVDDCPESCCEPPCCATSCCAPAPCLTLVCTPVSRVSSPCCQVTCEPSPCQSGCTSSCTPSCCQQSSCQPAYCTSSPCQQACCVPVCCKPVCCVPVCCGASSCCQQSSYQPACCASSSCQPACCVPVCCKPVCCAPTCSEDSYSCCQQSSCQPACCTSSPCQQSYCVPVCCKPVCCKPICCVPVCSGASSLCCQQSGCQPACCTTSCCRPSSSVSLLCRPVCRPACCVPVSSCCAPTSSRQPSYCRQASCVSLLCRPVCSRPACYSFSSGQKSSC
B6: DNA mismatch repair protein Mlh1 (Homo sapiens), P40692 (parent)
chain: MSFVAGVIRRLDETVVNRIAAGEVIQRPANAIKEMIENCLDAKSTSIQVIVKEGGLKLIQIQDNGTGIRKEDLDIVCERFTTSKLQSFEDLASISTYGFRGEALASISHVAHVTITTKTADGKCAYRASYSDGKLKAPPKPCAGNQGTQITVEDLFYNIATRRKALKNPSEEYGKILEVVGRYSVHNAGISFSVKKQGETVADVRTLPNASTVDNIRSIFGNAVSRELIEIGCEDKTLAFKMNGYISNANYSVKKCIFLLFINHRLVESTSLRKAIETVYAAYLPKNTHPFLYLSLEISPQNVDVNVHPTKHEVHFLHEESILERVQQHIESKLLGSNSSRMYFTQTLLPGLAGPSGEMVKSTTSLTSSSTSGSSDKVYAHQMVRTDSREQKLDAFLQPLSKPLSSQPQAIVTEDKTDISSGRARQQDEEMLELPAPAEVAAKNQSLEGDTTKGTSEMSEKRGPTSSNPRKRHREDSDVEMVEDDSRKEMTAACTPRRRIINLTSVLSLQEEINEQGHEVLREMLHNHSFVGCVNPQWALAQHQTKLYLLNTTKLSEELFYQILIYDFANFGVLRLSEPAPLFDLAMLALDSPESGWTEEDGPKEGLAEYIVEFLKKKAEMLADYFSLEIDEEGNLIGLPLLIDNYVPPLEGLPIFILRLATEVNWDEEKECFESLSKECAMFYSIRKQYISEESTLSGQQSEVPGSIPNSWKWTVEHIVYKALRSHILPPKHFTEDGNILQLANLPDLYKVFERC
partner: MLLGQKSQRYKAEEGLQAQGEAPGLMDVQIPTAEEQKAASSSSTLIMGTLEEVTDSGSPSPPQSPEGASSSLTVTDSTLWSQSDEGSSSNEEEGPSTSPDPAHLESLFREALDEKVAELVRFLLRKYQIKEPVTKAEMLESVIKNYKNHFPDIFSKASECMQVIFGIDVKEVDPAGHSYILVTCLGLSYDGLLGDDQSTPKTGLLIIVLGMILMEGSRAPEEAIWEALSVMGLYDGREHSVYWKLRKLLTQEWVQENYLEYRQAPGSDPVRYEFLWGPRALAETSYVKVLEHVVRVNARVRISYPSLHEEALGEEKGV
B7: Ubiquitin-protein ligase (Homo sapiens), Q05086 (parent)
chain: MEKLHQCYWKSGEPQSDDIEASRMKRAAAKHLIERYYHQLTEGCGNEACTNEFCASCPTFLRMDNNAAAIKALELYKINAKLCDPHPSKKGASSAYLENSKGAPNNSCSEIKMNKKGARIDFKDVTYLTEEKVYEILELCREREDYSPLIRVIGRVFSSAEALVQSFRKVKQHTKEELKSLQAKDEDKDEDEKEKAACSAAAMEEDSEASSSRIGDSSQGDNNLQKLGPDDVSVDIDAIRRVYTRLLSNEKIETAFLNALVYLSPNVECDLTYHNVYSRDPNYLNLFIIVMENRNLHSPEYLEMALPLFCKAMSKLPLAAQGKLIRLWSKYNADQIRRMMETFQQLITYKVISNEFNSRNLVNDDDAIVAASKCLKMVYYANVVGGEVDTNHNEEDDEEPIPESSELTLQELLGEERRNKKGPRVDPLETELGVKTLDCRKPLIPFEEFINEPLNEVLEMDKDYTFFKVETENKFSFMTCPFILNAVTKNLGLYYDNRIRMYSERRITVLYSLVQGQQLNPYLRLKVRRDHIIDDALVRLEMIAMENPADLKKQLYVEFEGEQGVDEGGVSKEFFQLVVEEIFNPDIGMFTYDESTKLFWFNPSSFETEGQFTLIGIVLGLAIYNNCILDVHFPMVVYRKLMGKKGTFRDLGDSHPVLYQSLKDLLEYEGNVEDDMMITFQISQTDLFGNPMMYDLKENGDKIPITNENRKEFVNLYSDYILNKSVEKQFKAFRRGFHMVTNESPLKYLFRPEEIELLICGSRNLDFQALEETTEYDGGYTRDSVLIREFWEIVHSFTDEQKRLFLQFTTGTDRAPVGGLGKLKMIIAKNGPDTERLPTSHTCFNVLLLPEYSSKEKLKERLLKAITYAKGFGML
partner: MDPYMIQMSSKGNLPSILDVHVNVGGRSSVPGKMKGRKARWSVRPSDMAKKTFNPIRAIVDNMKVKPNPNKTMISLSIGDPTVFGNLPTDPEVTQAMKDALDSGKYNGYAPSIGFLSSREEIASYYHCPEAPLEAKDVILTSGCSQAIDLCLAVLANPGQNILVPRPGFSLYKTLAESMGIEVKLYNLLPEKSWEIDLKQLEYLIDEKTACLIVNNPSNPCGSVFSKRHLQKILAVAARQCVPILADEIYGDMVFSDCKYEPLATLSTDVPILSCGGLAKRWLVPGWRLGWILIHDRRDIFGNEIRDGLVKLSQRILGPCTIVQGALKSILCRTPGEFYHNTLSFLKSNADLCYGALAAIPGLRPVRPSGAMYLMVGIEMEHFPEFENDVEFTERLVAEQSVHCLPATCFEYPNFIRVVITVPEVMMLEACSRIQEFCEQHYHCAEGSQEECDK
B8: Emerin (Homo sapiens), P50402 (parent)
chain: B4 chain
partner: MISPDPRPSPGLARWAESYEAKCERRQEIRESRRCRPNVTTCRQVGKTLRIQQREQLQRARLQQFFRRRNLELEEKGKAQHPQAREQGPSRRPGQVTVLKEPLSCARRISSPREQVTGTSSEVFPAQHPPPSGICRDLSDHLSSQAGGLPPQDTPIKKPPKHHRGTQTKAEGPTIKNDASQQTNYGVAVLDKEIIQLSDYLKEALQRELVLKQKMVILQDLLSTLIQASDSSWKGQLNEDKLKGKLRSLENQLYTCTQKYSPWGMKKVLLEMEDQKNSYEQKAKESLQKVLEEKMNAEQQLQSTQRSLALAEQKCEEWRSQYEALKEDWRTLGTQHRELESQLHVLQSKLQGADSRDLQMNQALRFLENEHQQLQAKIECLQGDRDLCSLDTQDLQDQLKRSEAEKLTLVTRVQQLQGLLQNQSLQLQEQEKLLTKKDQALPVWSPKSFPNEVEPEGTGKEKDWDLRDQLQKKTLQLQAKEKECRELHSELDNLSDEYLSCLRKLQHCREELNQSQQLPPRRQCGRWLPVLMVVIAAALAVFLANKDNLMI

Variants of: B1
Conditions: with fam9b_human FAM9B

Variant	effect of a mutation on the interaction
N269H	with no effect

Variants of: B2
Conditions: with kr108_human KRTAP10-8, P60410

Variant	effect of a mutation on the interaction
R86C	disrupting interaction strength
V107G	disrupting interaction strength
R187C	disrupting interaction strength

Variants of: B3
Conditions: with t23o_human TDO2, P48775
Sequence of t23o_human TDO2, P48775 (P48775 whole entry, looked up): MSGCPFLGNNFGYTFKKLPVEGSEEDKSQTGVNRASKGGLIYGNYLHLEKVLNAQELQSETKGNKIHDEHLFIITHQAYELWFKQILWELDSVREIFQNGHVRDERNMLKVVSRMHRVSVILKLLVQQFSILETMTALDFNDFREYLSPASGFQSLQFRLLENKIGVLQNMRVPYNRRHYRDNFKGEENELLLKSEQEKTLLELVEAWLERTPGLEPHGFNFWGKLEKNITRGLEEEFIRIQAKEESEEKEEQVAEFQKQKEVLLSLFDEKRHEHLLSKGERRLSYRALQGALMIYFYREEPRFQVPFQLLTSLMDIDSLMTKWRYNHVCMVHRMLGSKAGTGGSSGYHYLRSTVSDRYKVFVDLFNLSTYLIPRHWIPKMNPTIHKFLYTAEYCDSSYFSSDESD

Variant	effect of a mutation on the interaction
S248P	with no effect
R92G	with no effect

Variants of: B4
Conditions: with zf64b_human ZFP64, Q9NTW7

Variant	effect of a mutation on the interaction
S54F	with no effect
D72V	with no effect
P183H	with no effect
P183T	with no effect

Variants of: B5
Conditions: with kr109_human KRTAP10-9, P60411

Variant	effect of a mutation on the interaction
L107V	with no effect

Variants of: B6
Conditions: with maga8_human MAGEA8, P43361

Variant	effect of a mutation on the interaction
R472I	with no effect
G244D	with no effect
S44F	disrupting interaction strength

Variants of: B7
Conditions: with atty_human TAT

Variant	effect of a mutation on the interaction
I827K	disrupting interaction strength
S372P	disrupting interaction strength
R529C	disrupting interaction strength

Variants of: B8
Conditions: with TRAF3IP3, Q9Y228

Variant	effect of a mutation on the interaction
P183H	with no effect
P183T	with no effect
S54F	with no effect
